The source of these data is publication PMC10794523.

The target in this series is T1, Sif (Lmo0946-His6) (Listeria monocytogenes EGD-e) (UniProt Q8Y8F8).
T1 sequence: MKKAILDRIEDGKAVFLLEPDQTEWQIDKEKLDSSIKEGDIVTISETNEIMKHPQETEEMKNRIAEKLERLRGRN
The experiment in a line: EMSA. As to conditions: EMSA 37 C 30 min, 4.2% native PAGE, ethidium bromide stain; binding buffer not stated (protein dialyzed in 20 mM Tris-HCl pH 8.0, 150 mM NaCl, 1% glycerol). A general note: In EMSA bound probe runs differently from free probe, usually more slowly.

For the sequence “AGCGAATTAGCTCAAGTCCTCCATACCCCGTCGCGCCAATGATTGAAACTTTCATCCTAACCCCTCCCCGTTAATTATTAAATGATACTTTTCATTATAATGATGTATATTTATAATGTCAAATGGTTTTTTATTAATATTTAAAACTATTTTATGCATTTTAAGTTATTTATTATGTATATAATATACAAAAAACCGTTTATCCTTTTCTAGGATAAACGGTTAATCTTAAAATAAATCAGCGAACTCATCTTTCACTTGCGCAGTTTCCGCTAC (double strand) [argC promoter region]”, the binding entry is recorded as “no binding”. Take “GCGGTATGTTTCCACTGTCGCTGTAATACCTGATTGTTCTTTAGAAAGGTCGCGTAGTCGCTTTGGATCAGATACTACATCTGGATCACTTAGTAGTTCATTTAGTTCATCATAACGGTCTTCCACCGCCTGTAATCGATCATACATTGTATTCCAACACCTCTTTAACTTATTTTATTGGTGGATTGGCATGACATTTGCGACACACAGGGTAATAGTGGTCATTTCCGCCAATCATAATTTGTTCACCTGTATAAACTGGTTTTCCTTTGTCATCAACGCGCAG (double strand) [prfA promoter region]”: the binding result is reported as “no binding”.
